{"source": "paper doi:10.1101/2022.12.27.521990", "molecular_target": "Soluble, trimeric spike of SARS-CoV-2/human/China/Wuhan-Hu-1/2019 (residues 1-1204, 6 proline mutations) (SARS-CoV-2) (UniProt P0DTC2)", "assay": "SEC", "data": [{"substance": "Soluble, trimeric spike of SARS-CoV-2/human/China/Wuhan-Hu-1/2019 (residues 1-1204, 6 proline mutations) (from UniProt P0DTC2 14-1204) (domain or fragment)", "values": [{"measurement": "stoichiometry N", "value": 3}]}]}
